Source: patent publication US20220267443A1 (published 2022)

What was measured:
Test in all cases: SPR
[1] = target: recombinant human CTLA-4-Fc (R&D Systems, #7268-CT) (UniProt P16410 36-161)
[2] = target: recombinant cynomolgus CTLA-4-Fc (Sino Biological, #90213-C02H)
[3] = target: Human CTLA-4 monomer
[4] = target: Cynomolgus CTLA-4 monomer

Sequence of recombinant human CTLA-4-Fc (R&D Systems, #7268-CT) (P16410 36-161): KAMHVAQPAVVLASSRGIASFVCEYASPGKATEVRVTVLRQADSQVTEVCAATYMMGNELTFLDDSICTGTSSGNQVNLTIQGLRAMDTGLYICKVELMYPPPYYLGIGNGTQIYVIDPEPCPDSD
Sequence of recombinant cynomolgus CTLA-4-Fc (Sino Biological, #90213-C02H) (chain, as listed by the source C02H): as the sequence (P16410 36-161) above, with S14N, L106M counted along it

B1: AGEN2041w (antibody)
heavy: EVQLVESGGGLVKPGGSLRLSCAASGFTFSSYSMNWVRQAPGKGLEWVSSISSSSSYIYYADSVKGRFTISRDNAKNSLYLQMNSLRAEDTAVYYCARVGLMGPFDIWGQGTMVTVSSASTKGPSVFPLAPCSRSTSESTAALGCLVKDYFPEPVTVSWNSGALTSGVHTFPAVLQSSGLYSLSSVVTVPSSNFGTQTYTCNVDHKPSNTKVDKTVERKCCVECPPCPAPPVAGPSVFLFPPKPKDTLMISRTPEVTCVVVDVSHEDPEVQFNWYVDGVEVHNAKTKPREEQFNSTFRVVSVLTVVHQDWLNGKEYKCKVSNKGLPAPIEKTISKTKGQPREPQVYTLPPSREEMTKNQVSLTCLVKGFYPSDIAVEWESNGQPENNYKTTPPMLDSDGSFFLYSKLTVDKSRWQQGNVFSCSVMHEALHNHYTQKSLSLSPG
light: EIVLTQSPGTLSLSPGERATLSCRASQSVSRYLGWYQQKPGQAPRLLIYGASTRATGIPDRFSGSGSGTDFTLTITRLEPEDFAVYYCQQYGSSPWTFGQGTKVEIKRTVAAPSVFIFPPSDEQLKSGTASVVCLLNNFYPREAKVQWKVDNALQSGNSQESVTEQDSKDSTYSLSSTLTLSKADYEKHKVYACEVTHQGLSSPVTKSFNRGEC
- Kd [1]: 1.7 nM
- Kd [2]: 4.4 nM
- Kd [3]: 2 nM
- Kd [4]: 2.1 nM
